# From paper PMC10766989, “The juxtamembrane linker of synaptotagmin 1 regulates Ca^2+ binding via liquid-liquid phase separation” (Nature Communications, 2024)
# Target: the molecule itself
# Assay: dynamic light scattering; protein in solution, 10 µM, 25 mM Tris pH 7.4, 3% PEG 8000, NaCl as indicated (lower ionic strength); diameters modelled as Rayleigh spheres; monomers against higher ordered structures
protein,measurement,value
"GFP-syt1 (80–142) (domain or fragment, UniProt P21707 80-142, looked up, synaptotagmin 1 (syt1), juxtamembrane linker, residues 80–142; also called GFP-tagged juxtamembrane linker (80–142); isolated juxtamembrane linker (residues 80–142); source: E. coli BL21(DE3), purified (Ni-NTA, eluted with 200 mM imidazole, dialysed); not shown: msGFP (no linker), N-terminal, kept) KKCLFKKKNKKKGKEKGGKNAINMKDVKDLGKTMKDQALKDDDAETGLTDGEEKEEPKEEEKL",binding result,binds
